Key:
[1] = molecular target: human CD27 (transmembrane protein) on the cell membrane (human) (UniProt P26842); assay: flow cytometry on human PBMC, antibody 5 ug/mL, CD19 PE-A against APC-A (Example 3.3); other quadrants printed: Q3-UL 15.04 %, Q3-LL 29.25 %, Q3-LR 51.11 %
[2] = molecular target: CD27-mFc (Kangdai) (human) (UniProt P26842); assay: ELISA on coated CD27-mFc
[3] = molecular target: CD27-mFc (Kangdai) (human) (UniProt P26842); assay: competition ELISA: coated CD70 (1 ug/mL), CD27-mFc fixed at 4.3 ug/mL plus antibody dilution, HRP anti-mouse Fc detection; blocked ligand CD70 (Example 3.5)
[4] = molecular target: antigen CD27 (soluble, as used in the BLI and SPR experiments) (UniProt P26842); assay: BLI, antibody captured on AHC probe, CD27 in solution
[5] = molecular target: CD27-mFc (Kangdai) (human) (UniProt P26842); assay: competition ELISA: CD70 coated, CD27-mFc plus antibody dilutions; competitor CD70
[6] = molecular target: human CD27 (transmembrane protein) on the cell membrane (human) (UniProt P26842); assay: flow cytometry on human PBMC, antibody 5 ug/mL, CD3 FITC-A against APC-A (Example 3.3); other quadrants printed: Q2-UL 16.97 %, Q2-LL 27.93 %, Q2-LR 8.25 %
[7] = molecular target: CD27-mFc (Kangdai) (human) (UniProt P26842); assay: ELISA on coated CD27-mFc (1 ug/mL), AP anti-human Fc detection, absorption at 405/490 nm (Example 15.2)
[8] = molecular target: human CD27 (transmembrane protein) on the cell membrane (human) (UniProt P26842); assay: flow cytometry on CHO cells expressing human CD27

antigen CD27 (soluble, as used in the BLI and SPR experiments), sequence (P26842 21-192 limits assumed): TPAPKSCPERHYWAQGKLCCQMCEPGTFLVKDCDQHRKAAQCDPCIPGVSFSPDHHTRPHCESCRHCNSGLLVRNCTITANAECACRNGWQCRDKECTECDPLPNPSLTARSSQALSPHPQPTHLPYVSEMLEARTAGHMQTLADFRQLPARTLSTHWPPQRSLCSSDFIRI
CD27-mFc (Kangdai) (human), sequence (P26842 21-192 limits assumed): as above
human CD27 (transmembrane protein) on the cell membrane (human), sequence (P26842 20-260): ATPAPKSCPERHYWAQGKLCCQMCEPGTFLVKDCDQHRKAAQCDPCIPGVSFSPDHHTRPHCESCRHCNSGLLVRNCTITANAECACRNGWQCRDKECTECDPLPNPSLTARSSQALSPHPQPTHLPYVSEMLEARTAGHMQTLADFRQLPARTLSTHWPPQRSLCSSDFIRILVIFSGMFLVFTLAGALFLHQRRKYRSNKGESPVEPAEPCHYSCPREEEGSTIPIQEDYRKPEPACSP

Q3-UR, percent of gated cells that are CD19 PE+ and APC+ (antibody-stained) [1]: 4.6%
EC50 [2]: 0.0381 µg/mL
IC50 (read off the curve) [3]: 1 µg/mL
Kd [4]: 0.696 nM
koff [4]: 8.75e-05 s⁻¹
kon [4]: 126000 M⁻¹ s⁻¹
IC50 [5]: 1.31 µg/mL
Q2-UR, percent of gated cells that are CD3 FITC+ and APC+ (antibody-stained) [6]: 46.9%
EC50 [7]: 0.032 µg/mL
EC50 [8]: 2.87 µg/mL
Substance: CD27 monoclonal antibody Varlilumab (1F5)
